Results as given in US20200384079A1, “Compositions of Fibroblast Growth Factor LIgands and Methods of Treating Patients Undergoing Ischemia-Reperfusion Therapy” (University of Cincinnati, priority 2017, published 2020).
Entries after “also recorded” stand apart in the source; their conditions may differ.

Legend:
wildtype mouse hearts = experiment: Ex vivo model, low-flow ischemia and reperfusion; conditions: 10 μg immediately at reperfusion; 60 minutes low-flow ischemia, 60 minutes reperfusion
Text: FIGS. 12A-12B. […] Left bar is vehicle-treated and right bar is FGF2-treated wildtype mouse hearts.

[1] = Pharmacokinetic evaluation after intraperitoneal dose (serum ELISA); type: in vivo, rat; conditions: single intraperitoneal dose 0.5 mg/kg
Experimental: CVR-2016-799R1 signaling and the other two sets were to evaluate the pharmacokinetic properties of native FGF1 and modified FGF1 (FGF1^ΔHBS). The first set of experiments was for the ischemia/reperfusion study in which animals were divided into six groups as follows: (1) saline group: saline treatment given intravenously for 10 minutes immediately upon reperfusion, (2) heparin group: heparin, 60 U/kg intravenous (i.v.) bolus, given immediately at reperfusion+12 U/kg/hr i.v. infusion for 120 minutes of reperfusion, (3) FGF1 group: FGF1, 10 μg/kg i.v. infusion, given for 10 minutes immediately at reperfusion, (4) FGF1+heparin: heparin, 60 U/kg bolus, given immediately upon reperfusion followed by FGF1, 10 μg/kg i.v. infusion, given for 10 minutes and 12 U/kg/hr i.v. infusion given for 110 minutes of reperfusion, (5) modified FGF1 (FGF1^ΔHBS) group: FGF1^ΔHBS, 10 μg/kg i.v. infusion, given for 10 minutes, or (6) FGF1^ΔHBS+heparin: heparin, 60 U/kg bolus, given immediately at reperfusion followed by FGF1^ΔHBS, 10 μg/kg i.v. infusion, given for 10 minutes and 12 U/kg/hr i.v. infusion for 110 minutes of reperfusion. All rats were subjected to 30 minutes of regional ischemia and 120 minutes of reperfusion. Drugs were administered at the onset of reperfusion via the jugular vein (FIG. 2A). […] A total of ninety-six rats was completed for the I/R study. Sample size for each group ranged from 9-16 depending on the power analysis. A total of thirty-five rats were excluded from the study based on the lack of cyanosis of the heart or typical elevation of the ST segment in the electrocardiogram during ischemia, and death from malignant arrhythmia. For the biodistribution or FGF1 signaling study, rats were randomly divided into six groups as described above (FIG. 2B). Following drug treatment (immediately following 15 minutes of treatment or 105 minutes post-treatment at the point which mimics the length of time of reperfusion), solid organs and blood (see sections “Tissue collection for exogenous FGF1 biodistribution” and “Cardiac preparation to detect the activation of FGF1 downstream molecules”) were collected. A total of 33 rats were used for biodistribution and FGF1 signaling studies, and 3 rats were excluded due to anesthetic overdose. Also, a total of 8 plasma samples were excluded because of hemolysis. For elimination half-life of native FGF1 and FGF1^ΔHBS, 12 rats were randomly divided into two groups and treated intraperitoneally with either FGF1 form as described in the section “Pharmacokinetic evaluation of exogenous FGF1 or FGF1^ΔHBS ”.
The in vivo half-life of FGF1 or FGF^ΔHBS (given as a single, intraperitoneal dose of
0.5 mg/kg body weight) was assessed, using the human FGF1 immunoassay ELISA kit (R&D System, MN), from blood (i.e., serum) collected at varying times as described previously. The pharmacokinetic parameters of FGF1 or FGF1^ΔHBS were analyzed using the Drug and […]

Molecule | contractile function (+dP/dt) compared to vehicle (in words) (wildtype mouse hearts) | infarct size compared to vehicle (in words) (wildtype mouse hearts) | absorption phase half-life (in words) ([1]; non-compartmental) | elimination phase half-life (in words) ([1]; non-compartmental, 0.5 mg/kg) | area-under-curve (AUC), fold greater than FGF1 ([1]; serum) [fold] | maximum serum concentration (Cmax), fold greater than FGF1 ([1]; serum) [fold] | time to reach maximum serum concentration (Tmax) (in words) ([1]; 0.5 mg/kg)
FGF1: native recombinant human fibroblast growth factor 1 | significant enhancement of contractile function | significant reduction in infarct size | – | – | – | – | –
FGF1^ΔHBS: FGF1 mutant carrying the K127D/K128Q/K133V triple mutation in its HS-binding region; reduced heparin-binding affinity (protein) MAEGEITTFTALTEKFNLPPGNYKKPKLLYCSNGGHFLRILPDGTVDGTRDRSDQHIQLQLSAESVGEVYIKSTETGQYLAMDTDGLLYGSQTPNEECLFLERLEENHYNTYISKKHAEKNWFVGLDQNGSCVRGPRTHYGQKAILFLPLPVSSD | – | – | not significantly different from FGF1 | not significantly different from FGF1 | 2 | 4 | reached earlier than with FGF1; also recorded: relatively fast
